Data set [1] addresses T1, DNA primase p48/p58 (human, UniProt P49642;P49643 1-420;1-509).
T1 sequence 1: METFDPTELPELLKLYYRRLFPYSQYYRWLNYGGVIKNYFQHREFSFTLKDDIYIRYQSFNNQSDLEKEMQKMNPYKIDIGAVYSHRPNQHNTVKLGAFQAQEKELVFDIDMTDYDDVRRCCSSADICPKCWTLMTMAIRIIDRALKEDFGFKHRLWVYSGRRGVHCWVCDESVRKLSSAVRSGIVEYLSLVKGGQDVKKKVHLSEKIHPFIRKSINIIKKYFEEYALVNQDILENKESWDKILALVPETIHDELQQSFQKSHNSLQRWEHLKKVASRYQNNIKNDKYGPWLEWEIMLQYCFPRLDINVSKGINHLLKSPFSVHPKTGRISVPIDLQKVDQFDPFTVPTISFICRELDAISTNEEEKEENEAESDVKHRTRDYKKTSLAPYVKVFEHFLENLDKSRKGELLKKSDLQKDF
T1 sequence 2: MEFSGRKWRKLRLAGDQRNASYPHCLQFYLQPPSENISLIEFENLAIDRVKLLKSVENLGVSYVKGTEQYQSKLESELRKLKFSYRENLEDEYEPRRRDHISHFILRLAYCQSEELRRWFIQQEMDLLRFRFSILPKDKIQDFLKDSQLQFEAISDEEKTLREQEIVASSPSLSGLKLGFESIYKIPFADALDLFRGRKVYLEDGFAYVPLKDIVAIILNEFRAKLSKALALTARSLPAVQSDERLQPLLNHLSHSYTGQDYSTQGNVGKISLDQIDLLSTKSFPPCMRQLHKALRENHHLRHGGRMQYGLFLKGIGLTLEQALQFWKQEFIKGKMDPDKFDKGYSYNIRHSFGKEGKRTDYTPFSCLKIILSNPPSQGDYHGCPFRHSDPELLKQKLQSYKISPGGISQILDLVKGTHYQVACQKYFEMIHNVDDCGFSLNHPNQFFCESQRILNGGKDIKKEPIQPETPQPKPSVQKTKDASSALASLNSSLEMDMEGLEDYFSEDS
In words: EMSA; 0.5 mM ATPgS; EMSA: 25 mM Tris-HCl pH 7.5, 40 mM Na acetate, 10 mM Mg acetate, 20 mM 2-mercaptoethanol, 0.25 mg/ml BSA, 0.5 mM ATPgS, 30 C 30 min; pull-down: 25 mM Tris-HCl pH 7.5, 100 mM Na acetate, 10 mM Mg acetate, 0.25 mg/ml casein, 1 mM DTT, 0.01% Triton-X, 0.5 mM ATPgS or 1 mM ATP, 30 C 30 min then beads 4 C 30 min. Particulars: protein: recombinant; tags: His6 on p58; p48 untagged; copies: 1;1; label: 5'-32P; single strand.

Data set [2] addresses Mcm4/6/7 complex (mouse, UniProt P49717;P97311;Q61881 1-862;1-821;1-719). The experiment in a line: EMSA; 0.5 mM ATPgS; 2.3 nM Mcm4/6/7; EMSA: 25 mM Tris-HCl pH 7.5, 40 mM Na acetate, 10 mM Mg acetate, 20 mM 2-mercaptoethanol, 0.25 mg/ml BSA, 0.5 mM ATPgS, 30 C 30 min; pull-down: 25 mM Tris-HCl pH 7.5, 100 mM Na acetate, 10 mM Mg acetate, 0.25 mg/ml casein, 1 mM DTT, 0.01% Triton-X, 0.5 mM ATPgS or 1 mM ATP, 30 C 30 min then beads 4 C 30 min. The following applies: protein: recombinant; tags: His6-Mcm4; Mcm7-Flag; chain copies: 2;2;2; label: 5'-32P; single strand. In general terms: In EMSA bound probe runs differently from free probe, usually more slowly.

The target of data set [3] is Mcm4/6/7 complex;DNA primase p48/p58 (mouse;human, UniProt P49717;P97311;Q61881;P49642;P49643 1-862;1-821;1-719;1-420;1-509, |). The experiment in a line: EMSA; 0.5 mM ATPgS; 2.3 nM Mcm4/6/7, 25-100 nM primase; slower band, proportional to primase; EMSA: 25 mM Tris-HCl pH 7.5, 40 mM Na acetate, 10 mM Mg acetate, 20 mM 2-mercaptoethanol, 0.25 mg/ml BSA, 0.5 mM ATPgS, 30 C 30 min; pull-down: 25 mM Tris-HCl pH 7.5, 100 mM Na acetate, 10 mM Mg acetate, 0.25 mg/ml casein, 1 mM DTT, 0.01% Triton-X, 0.5 mM ATPgS or 1 mM ATP, 30 C 30 min then beads 4 C 30 min. The following applies: protein: recombinant;recombinant; tags: His6-Mcm4; Mcm7-Flag;His6 on p58; p48 untagged; chain copies: 2;2;2;1;1; label: 5'-32P; single strand.

Data set [4] deals with T2, mouse Mcm2∼7 complex (Mcm2/3/4/5/6/7), Flag tag on Mcm5 (mouse, UniProt P97310 1-904; P25206 1-812; P49717 1-862; P49718 1-734; P97311 1-821; Q61881 …). The experiment in a line: cell-based or functional assay.
Data set [5] concerns the target mouse Mcm4/6/7 complex (His6-Mcm4, Mcm6, Mcm7-Flag) (mouse, UniProt P49717 1-862; P97311 1-821; Q61881 1-719). In words: cell-based or functional assay.
Data set [6] concerns the molecule itself. In words: native gel or EMSA; proteins alone or mixed, 25 mM Tris-HCl pH 7.5, 5 mM magnesium acetate, 20 mM 2-mercaptoethanol, 0.01% Triton X-100, 1 mM ATP, 30°C 15 min; 5% native PAGE at 4°C, silver staining; no DNA.
Data set [7] has as its target T2, mouse Mcm2∼7 complex (Mcm2/3/4/5/6/7), …. The experiment in a line: co-IP; purified Mcm2∼7 (Flag tag on Mcm5) held on anti-Flag M2 antibody agarose beads, mixed with purified primase, His-p48 or GINS, with or without an oligonucleotide, GINS or DNase I; 50 mM Tris-HCl pH 7.5, 100 mM sodium acetate, 5 mM magnesium acetate, 1 mM ATP, 10% glycerol, 0.01% Triton X-100; 2 h at 4°C; eluted with 0.1 M glycine pH 2.8 or boiled; silver or SYPRO staining and Western blotting. Particulars: both partners purified. Background: Immunoblotting shows a protein as a band on a membrane.

mouse Mcm4/6/7 complex (His6-Mcm4, Mcm6, Mcm7-Flag), sequence (P49717 whole entry, chain 1 of 3): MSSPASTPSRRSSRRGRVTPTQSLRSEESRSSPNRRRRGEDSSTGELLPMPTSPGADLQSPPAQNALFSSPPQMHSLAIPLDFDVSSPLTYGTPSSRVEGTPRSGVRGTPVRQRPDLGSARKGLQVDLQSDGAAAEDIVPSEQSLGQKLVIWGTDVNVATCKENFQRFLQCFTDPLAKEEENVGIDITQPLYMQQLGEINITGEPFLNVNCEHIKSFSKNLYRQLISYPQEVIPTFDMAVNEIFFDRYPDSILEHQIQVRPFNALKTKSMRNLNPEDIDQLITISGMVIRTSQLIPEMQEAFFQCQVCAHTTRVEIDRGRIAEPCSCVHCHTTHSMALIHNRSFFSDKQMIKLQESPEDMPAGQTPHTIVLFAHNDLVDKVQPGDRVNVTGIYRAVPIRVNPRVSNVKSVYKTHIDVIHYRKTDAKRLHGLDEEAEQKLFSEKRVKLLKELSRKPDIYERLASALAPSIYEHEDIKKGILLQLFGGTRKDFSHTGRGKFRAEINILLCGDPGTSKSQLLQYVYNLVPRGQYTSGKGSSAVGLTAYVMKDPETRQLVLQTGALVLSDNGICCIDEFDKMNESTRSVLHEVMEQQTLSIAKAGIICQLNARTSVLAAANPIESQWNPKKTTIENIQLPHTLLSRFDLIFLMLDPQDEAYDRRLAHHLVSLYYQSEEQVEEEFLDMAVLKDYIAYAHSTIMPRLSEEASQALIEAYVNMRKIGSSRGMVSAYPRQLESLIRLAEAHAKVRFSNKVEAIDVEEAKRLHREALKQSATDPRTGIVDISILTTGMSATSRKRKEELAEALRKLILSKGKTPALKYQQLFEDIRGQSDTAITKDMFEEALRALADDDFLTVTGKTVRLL
mouse Mcm4/6/7 complex (His6-Mcm4, Mcm6, Mcm7-Flag), sequence (P97311 whole entry, chain 2 of 3): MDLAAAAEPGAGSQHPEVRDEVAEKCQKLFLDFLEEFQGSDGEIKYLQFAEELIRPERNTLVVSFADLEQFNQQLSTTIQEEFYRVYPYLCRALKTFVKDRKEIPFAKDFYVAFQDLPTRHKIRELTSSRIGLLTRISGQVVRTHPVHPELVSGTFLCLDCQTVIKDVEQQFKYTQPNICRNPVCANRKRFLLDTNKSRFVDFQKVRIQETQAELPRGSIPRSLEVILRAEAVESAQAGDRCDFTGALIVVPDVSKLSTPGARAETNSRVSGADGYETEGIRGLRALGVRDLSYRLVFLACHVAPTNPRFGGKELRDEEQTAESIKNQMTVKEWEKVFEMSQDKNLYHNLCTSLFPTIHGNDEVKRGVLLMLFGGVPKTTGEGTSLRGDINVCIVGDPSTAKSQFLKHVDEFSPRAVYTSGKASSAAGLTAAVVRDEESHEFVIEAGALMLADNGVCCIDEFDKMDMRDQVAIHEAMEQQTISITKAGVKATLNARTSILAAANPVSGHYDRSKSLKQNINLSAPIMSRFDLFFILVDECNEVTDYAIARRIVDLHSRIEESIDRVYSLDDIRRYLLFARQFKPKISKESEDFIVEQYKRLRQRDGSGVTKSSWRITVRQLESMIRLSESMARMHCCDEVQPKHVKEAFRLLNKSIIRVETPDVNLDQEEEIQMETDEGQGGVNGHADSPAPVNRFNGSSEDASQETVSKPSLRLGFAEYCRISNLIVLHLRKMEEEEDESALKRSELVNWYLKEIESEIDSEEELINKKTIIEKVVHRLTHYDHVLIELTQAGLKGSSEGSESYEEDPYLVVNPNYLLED
mouse Mcm4/6/7 complex (His6-Mcm4, Mcm6, Mcm7-Flag), sequence (Q61881 whole entry, chain 3 of 3): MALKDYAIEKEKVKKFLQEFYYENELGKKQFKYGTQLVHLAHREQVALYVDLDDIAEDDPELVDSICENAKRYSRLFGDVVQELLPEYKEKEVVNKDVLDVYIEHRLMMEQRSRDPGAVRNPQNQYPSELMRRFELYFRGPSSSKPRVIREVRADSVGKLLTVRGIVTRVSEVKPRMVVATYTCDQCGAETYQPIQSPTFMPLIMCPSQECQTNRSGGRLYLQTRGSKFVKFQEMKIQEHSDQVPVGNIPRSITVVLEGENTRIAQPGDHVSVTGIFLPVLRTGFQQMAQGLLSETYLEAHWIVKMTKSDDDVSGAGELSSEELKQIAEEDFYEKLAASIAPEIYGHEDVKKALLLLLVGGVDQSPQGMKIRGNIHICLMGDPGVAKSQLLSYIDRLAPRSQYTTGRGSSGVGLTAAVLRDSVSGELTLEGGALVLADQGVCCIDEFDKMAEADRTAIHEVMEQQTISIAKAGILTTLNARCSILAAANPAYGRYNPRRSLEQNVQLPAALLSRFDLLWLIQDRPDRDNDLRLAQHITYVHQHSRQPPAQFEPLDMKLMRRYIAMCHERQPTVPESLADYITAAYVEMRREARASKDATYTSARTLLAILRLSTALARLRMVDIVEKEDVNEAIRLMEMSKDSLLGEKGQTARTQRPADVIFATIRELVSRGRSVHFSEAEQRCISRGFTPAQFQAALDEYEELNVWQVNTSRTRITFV
Mcm4/6/7 complex;DNA primase p48/p58, sequence (P49717 whole entry, chain 1 of 3): as the sequence (P49717 whole entry, chain 1 of 3) above
Mcm4/6/7 complex;DNA primase p48/p58, sequence (P97311 whole entry, chain 2 of 3): as the sequence (P97311 whole entry, chain 2 of 3) above
Mcm4/6/7 complex;DNA primase p48/p58, sequence (Q61881 whole entry, chain 3 of 3): as the sequence (Q61881 whole entry, chain 3 of 3) above
Mcm4/6/7 complex, sequence (P49717 whole entry, chain 1 of 3): as the sequence (P49717 whole entry, chain 1 of 3) above
Mcm4/6/7 complex, sequence (P97311 whole entry, chain 2 of 3): as the sequence (P97311 whole entry, chain 2 of 3) above
Mcm4/6/7 complex, sequence (Q61881 whole entry, chain 3 of 3): as the sequence (Q61881 whole entry, chain 3 of 3) above

B1: 132-mer pyrimidine-rich oligonucleotide (ssDNA)
DNA: CCACACATGATTTGTTTGCTCCCTGAAATGATCTATATTTAATATATAATGTATATTCCCTCGGGATTTTTTATTTTGTGTTATTCCACGGCATGAAAAACAAAAAACATTCTTCTCATCCTTGGTCCCTCA
Turning to B1, the binding result in data set [1], in data set [2] and in data set [3] was “binds” in each case.

B2: human DNA primase p48/p58 hetero-dimeric complex (His-tagged p58, non-tagged p48) (complex)
chain 1: T1 sequence 1
chain 2: T1 sequence 2
notes: DNA primase small subunit p48, human; DNA primase large subunit p58, human; End of the His tag is read from the printed name His-p58; also called His-p58/p48 complex; His-tagged p48/p58 complex; source: E. coli BL21 (DE3) RIL, purified as previously described [58]; not shown: His tag, N-terminal, kept
On to B2, for which, in data set [4], the “RNA primer synthesis by p48/p58 primase on poly(dT) with 100-400 ng of Mcm2∼7” value was approximately 3 fold. In data set [5], the “RNA primer synthesis by p48/p58 primase on M13 ssDNA with 100-600 ng of Mcm4/6/7” value fell in the range of 4 to 7 fold and the “RNA primer synthesis by p48/p58 primase on poly(dT) with 100-600 ng of Mcm4/6/7” value was approximately 3 fold. Besides, in data set [6], the binding result is recorded as “binds”.

B3: His-tagged p48 alone (human DNA primase p48 single subunit) (natural protein, UniProt P49642 1-420, looked up)
chain: T1 sequence 1
notes: DNA primase small subunit p48, human; End of the His tag is read from the printed name His-p48; also called His-p48; source: E. coli BL21 (DE3) RIL, purified as previously described [58]; not shown: His tag, N-terminal, kept
On to B3, for which the binding result in data set [7] is reported as “binds”.
